Experimental data: the DeepSol protein solubility set

Experiment: soluble on expression in E. coli; label from the status in PepcDB or PDB records

Sequence | soluble on expression in E. coli
MQTSDLLKKVRRIEIKARGLSRQIFAGQYHSAFRGRGMAFSEVREYTVGDDVRDIDWNVTARYARPYVKVFEEERELTVMLMVDMSGSLSFGTEVETKRELTAEVAATLAFSAIQNNDKIGVLFFTDRIEKYVPPAKGKKHILYIIRELLEFRPQSRATDLSVPLSYLTRLVKKRCTAFLISDFQSEKDSYEKTLLMSARKHDIVAIRIFDRREADLPNVGLMRFRDAETGQTHWVDTADSSVRKAYADAYERRQVALAVLLKRCGVDTTEIRTGQDFVQQLLILFKKRS | not soluble
MKIYSQGDQAIVVSIEKNVSQRLTEDLLSLRAYLIDKSYPFITEIVATESDLMICYDARDMIKHHHIQSPFLYMKALIDSIKLEIRHHRQQLQAKYIQKQQSVNIPVIYGGEFGPDLQHLLKHLKLKLEDFVKLHTQEKYFVSMMGYSPGFPYLTGMNKKLHVNHTSEKKKFIPCGSVIMEGKKCGIVTTDTYNDWLVIGYTPVQLFFPEQQNFTLLKLGDNVTFESKDINEIELGDYKTCQSLEHHHHHH | not soluble
MDVAALVSGGVDSSVVVHRLCEEGYKPAIFYIRIGMEDKDGYIDCPAEEDIELTTLIARRYGCPFEVVDLHKEYWERVVSYTVETVRRGLTPNPDMMCNKLIKFGCFEERWGYQFDRIATGHYATTDLLNGKTYLSTAKDPVKDQTDFLAQINFAQISKLMFPIGHLLKSEVRAIANAAGLPSAKRKDSQGICFLGKIDYNDFIERYLGKKEGRIIELETGKVIGRHQGYWFHTIGQRKGLGLSGGPWFVVKKDIKRNIILVSRGYDPDAQYGKTIEMETFDFITEDAYEAGYWNREDATPVTFKIRHTPEFTRGLLYKGEKGYRLESEERIQGIAPGQYCVIYDEDHHLCYGSGMITKGR | not soluble
MTPFSDAAKNNTVKTDGDSVSGRDLPITKISEDRFERSAYSAQLANIICDVAPWGASTVFSLTGQWGSGKTSLVNLIRSEESLSNEKWTIVDFNPWVASDPQSLIEEFYRVIVGTVPDDKTGQKIKTVLQKTFSTIGSIAGGVGGFGVLEALALSKGVDAANAVYKTWKQEQDSWPTLYTRAANHFKDLNKRILIVVDDIDRLHTDELALLMKVIRLLGRFPQVNYLLVYEEESLLTTLARSTAVGGSEDDALRFMEKIVQYPFDVPPLTSFQIEKELSALFDKLFQGVSLSGDPEDFALVKSRMFDVWEKTLVTPRLLHRFAALLTNWTRIYGSGEVNGVDLTILATIRIVFPSVYKRLSRAKEVLLQGLEHHHHHH | not soluble
MAHHHHHHMVSFSLIIYTSLRLAHACDARNCTLQQLGRQLEAVVTVCDESSSTTTTESTSERANNASSAADATRTGQGADAAQQVHSTTQAKRASLARDSDFKSSSEIAAFSVLRAWCPPPTARILILGMGGNSMAHALRVVLGAEALIEVVEVEPAVVVSCMQMGTLHESDTKTKVHLQDADQCLATLPPTTYDFIYMDIFEPIQATMRNLHPWVLATRTLLKPGGLLVMNDHHLPSAAGVAPYAKVFGEGNVQAVNLRGWSESIVVCVAPGDAATDKYSLDVSKTHADIAFNIYETLVPGWLPHFSWLVKAKTYRHEGVRCRLWTS | soluble
MSLSYPWPDAGTALNAISTPMPVIDEDRLAANILRAQSYLDAHGKTFRPHIKTHKIPAIAKQQLQAGAIGINCQKVSEAEVFADAGFEDILITYNILGAAKLSRLKALNARIGRLSVVADSAVTIAGLADTFDAARPLAVLVECDTGGKRCGVQTPEAALALAEQIVSASGLIFRGILTYPAPGGAEMVEKFIRETMALLATKGIDCPVRSSGGSPDFYSAHLVASATEHRAGTYIYNDRSMLRAGHCSAGDLAMHVLATVVSKPTADRAVLDSGSKALTSDLLGFNDYGLLEGYEGAKIISLSEEHAVVDLSGCTGARPEIGDVVQVVPNHTCVVSNLFDRMVFHRNGVVTRVEQVAARGTVWEGHHHHHH | soluble
MPPKKAPAKKLHELAAEVRVGHKINDISKKTFIVGKQFATGGFGRIHTCTEEGKSQQMVMKIEPSTNGPLLTEVVVFNRILKKELIESYKKKKKISWIGLPYLIANGYFTYESEKMRYMIIPKYATSLEAVRETNGGTLAMKDSLTVASCILDALEYLHESDYAHADVKAANILLEKQGVYSTAVLVDFGLAHRTTNNVDKPDKKRAHNGTCIFTSTDAHRGNNPSFRGDIEILAYNLMMWATGTLPWMALESSPEKVFDAKQKFIAGLPGTLQNVLKNESSAVVGCIASMFDISMKTNYTDKVDMGKLKKLVTDAIQKTSSDGKKTPTRQKKLAEEDKNAVTPKRSTRRLAVKEESDNKDNDEVEVKPEKKATPRKRTTRKAVEVNNDSDDNEEQYENPKSKSSRTQTKSKRAKEEDVDDEEEIIIPKSSRSRSKVQLSGEGSDVTTPSSAASTSRSRSIRLGLTSSTASSNKVAKKIEQKYKRLSMNKSSLVPVTISVASDKSPTTSTPSSSSGLRSKRKSSEDVGEGITLKTQVLITPAIKKAKTKSGISSATKASPTELRRVPGVRNFPKGRRSMIIKETSAKYKERLASRQTKPTFDDSSCSSEV | not soluble
YATQSKNTNILLEYVSANPTGDLHIGHARNAAVGDSLANILIAAGYNVTREYYINDAGNQITNLARSIEARYFEALGDTSYEMPADGYNGKDIIEIGKDLAVKHPEIKDYSDEERLKTFRQLGVDYEMEKLKKDLSDFNVHFDNWFSETSLYENGAIKNTLSKMKELGYTYEADGATWLRTSDFKDDKDRVLIKKDGNYTYFTPDTAYHYNKINRGNDILIDLMGADHHGYINRLKASLETFGVDSDRLEIQIMQMVRLMQNGEEVKMSKRTGNAITLREIMDEVGIDAARYFLTMRSPDSHFDFDLELAKEQSQDNPIYYAQYAHARICSILKQAKE | not soluble
MATQSDLMELEMAMDPDRKAAVSHWQQQSYLDSGIHSGATTTAPSLSGKGNPEDDDVDNQVLYEWEQGFNQSFNQEQVADIDGQYAMTRAQRVRAAMFPETLDEGMQIPSTQFDSAHPTNVQRLAEPSQMLKHAVVNLINYQDDAELATRAIPELTKLLNDEDQVVVNKAAVMVHQLSKKEASRHAIMRSPQMVSAIVRTMQNTNDVETARCTSGTLHNLSHHREGLLAIFKSGGIPALVNMLGSPVDSVLFHAITTLHNLLLHQEGAKMAVRLAGGLQKMVALLNKTNVKFLAITTDCLQILAYGNQESKLIILASGGPQALVNIMRTYTYEKLLWTTSRVLKVLSVCSSNKPAIVEAGGMQALGLHLTDPSQRLVQNCLWTLRNLSDAATKQEGMEGLLGTLVQLLGSDDINVVTCAAGILSNLTCNNYKNKMMVCQVGGIEALVRTVLRAGDREDITEPAICALRHLTSRHQDAEMAQNAVRLHYGLPVVVKLLHPPSHWPLIKATVGLIRNLALCPANHAPLREQGAIPRLVQLLVRAHQDTQRRTSMGGTQQQFVEGVRMEEIVEACTGALHILARDIHNRIVIRGLNTIPLFVQLLYSPIENIQRVAAGVLCELAQDKEAAEAIEAEGATAPLTELLHSRNEGVATYAAAVLFRMSEDKPQDYKKRLSVELTSSLFRTEPMTWNETGDLGLDIGAQGEPLGYRQDDPSYRSFHSGGYGQDAMGMDPMMEHEMAGHHPGPDYPVDGLPDLGHTQDLIDGLPPGDSNQLAWFDTDL | soluble
MAKKRGKPEIDWTDDDKEIIWVSKSEIKRDSEHLKKLGAELIELTPQNLEKIPLDEDLKYAIRQAQSFKLEARRRQIQFIGKLLRNRDSAPIQDALDKVKNRHNQQQALLHKLELIRDQLINMGDASLNQLLSEYPQLDRQHLRNLIRMAQKEKQINKPAKNYHEILQYLKSELIV | not soluble
MATLDHLLEELFEACSVFDKFPVSFNRTLIDELVDCLDFEEPTLTVIRKFVRNLDFEGKLAPIRMVIRLLDAAIKNNKFRNEDDLLLEFIQKSEAILSRPRNRLLLQDLFNFYTNPVVFAVREPESWLVVIRWVMNEFADEYLSCFHIDLFVKFICQIPSAAEARRLNIISEAISPDLVGSFSARIIYNYAQDLTIDECNTFVNNFRLSSLGYRWPAIRVLLKMRELHPSLVIPLAPASWTEENRRVDVICRLLFPMDFDTLKMMDVQLENVEALVDSVLDSPVDIDLKEKMLDHMNERQFEKYFDELLSFAKIESNDVNIHVTSALRSLPQHATRQKVAQLFEALGDKILDLALILNLSLAYGSNAFDFPEFEKFKDRYSKLVSDAIKAPVGESNAERIITVLECMKLFPCFLPVKADETAVYLDFSNSLTLNEKGAREVPVKTTGHEKMHVTVLLTARADGYKCRPYVLLPRTRPDKEIAARFKNSLQLSWCNRTFFNDEVTEDYLNTIIGPPFFGKRLLAWDAFRCHISDATKRVLKNLKVDTAVVPGGCTKFVQAPDVYWNSPFKASIRRSYEDWMVHGQKSFTKSNNMRPPSMLQYLEWIENAWNDLPKDLILKSFKGCALTIATDGSEDNQIHCFAPNGSIPSGLDLLNSTRIENSLVDLVQDIGIDESQEEGNESDNSIISVG | not soluble
MSLISPIIRLSHVTFQTSSAARVIKEFVTKYQFHPFAARGLDGGSPCQVALKNGGVVFMVNENTPKTHENSVLLYDFPLQIPFPDTACNVTFEVEDVSGLYHHLVDEGCQLLLPPTELHDDFGSVTYCIVKSVVGNVSHTLIDRTHYRSSFLPGFEYLKNSTHNLSSGNMTEGHHHHHH | not soluble
MGSDKIHHHHHHMITRLHEPYLALLQQAMLAATPSGSRVALDLGCGDGSKTRWLRACSASDALIVGVDRDGSVLRAADDMMFIAGDASHLPLRDACIDLVWCIAALNLFPHRHLALREMWRVLRHGGTLVVASAGEYWVRLRNHPAPLIAALPDTPLPLPPADGLDEEWLLLMAAAGFQPRQTQAYLLDGGRLAQVALINSEALTSYLSLPPCASPVADPEPRHLLIVTSARKG | not soluble
MSLNGEGAVPTLVGYGADTAIETSRRTSRPLAAPVVRKLAKELAVDLAALQRGSGAGGVITRADVLAAARGGVGAGPDVRPVHGVHARMAEKMTLSHKEIPTAKASVEVICAELLRLRDRFVSAAPEITPFALTLRLLVIALKHNVILNSTWVDSGEGPQVHVHRGVHLGFGAATERGLLVPVVTDAQDKNTRELASRVAELITGAREGTLTPAELRGSTFTVSNFGALGVDDGVPVINHPEAAILGLGAIKPRPVVVGGEVVARPTMTLTCVFDHRVVDGAQVAQFMCELRDLIESPETALLDLEGHHHHHH | soluble
MGGSHHHHHHGMASALSWKEARCQPAFLKDQARAIRLPPVDACRTQVRHGTGWGREPGILTGWGRRARDPDLGALPPGIQAAFCPGLPRCIEIELVHTAP | not soluble
MSDFMSNTAALQLLHNAVKSYEREVANFFAANEKATSKYTGRFDFRQFAKKMFDPIPTAQLGQLYIEMLEESHIYMHSHQKSRVGANGYPHSFVSVPELLLNMILAYQLPQQRFVPAEKMEEDGGKVEEDGGAGGAGGSRKKRRNSAARKGKNVTINPRVVLGNELAAKLLEEMLKIPLAPESKQWKTAKYVLCPSSCPQQMEVFGEIIAKNTKSGLISFNALNYFMHDPILNRYLDDPITILHALYIGPLQAPTVELFATNRTDVFRQRCREVLRIALHASKDPMTFTYSVPEFIDKNHPDRCSYRDFVETVTQLIRDLNGEHQGSTAIHTGWACAAIKKFGQKRYVDKTWKDENYYDLIWTVLAQRPHLKKFVVDVLEKNFKDLDAARFWRRMQPYQMNPTVIFNQNVIIVDPLQPTDEFLNFPPTVRHIQMVTNEKEIRDLQMLLEYKVSREEKIYVGVDAEWSAYVSPSKATILQMSLHDCIYIIDLESYQISPQSYHHVLSYLFETPEIVKIGFQFGEDLHQLRAAFRNCVALYRPNNVVCVGKLIMDLMDEIGKLENCDDFRKEWLPHLTDNETSSAANSSVEEQANETIDTNESMDEGDGGGSGIVVKKEESVKQQFLNKGLSFICEKLLGRPLDKTEQCSVWDRRPLRCLQLRYAAMDAYCMLLLYEKCATIFAKLGINVNDFVSKQSPIRISLPLLSEEKL | not soluble
MDTKPPIERSMYIELRTSLEMFRGDLVDLEALANASRDALDQLPFVPKGAKTDHDEAHPNPDPESALRSGRLDSLVCATASAAQSALVTCVKLIDWAYEYEPDDEDDDDDDMVPMDDIDDDDDDDDDDENGGSSGANGGGSNGSGRSGPPDDNGAGAASASVADEFANARPSRGGIVLDLPTRASTTDGPVDAR | not soluble
